Reference: patent US20050147612A1 (published 2005)

What was measured:
FR3exFc = molecular target: T1, FR3exFc (human); experiment: BIAcore, mini-antibody format
T1 construct: Said to be entirely in dimeric form; also called FR3/Fc; FGFR3/Fc

FGFR3 wild type on cells = FGFR3 wild type on cells (human, UniProt P22607 23-806); experiment: cell-based or functional assay
FGFR3 wild type on cells, sequence (P22607 23-806 limits assumed): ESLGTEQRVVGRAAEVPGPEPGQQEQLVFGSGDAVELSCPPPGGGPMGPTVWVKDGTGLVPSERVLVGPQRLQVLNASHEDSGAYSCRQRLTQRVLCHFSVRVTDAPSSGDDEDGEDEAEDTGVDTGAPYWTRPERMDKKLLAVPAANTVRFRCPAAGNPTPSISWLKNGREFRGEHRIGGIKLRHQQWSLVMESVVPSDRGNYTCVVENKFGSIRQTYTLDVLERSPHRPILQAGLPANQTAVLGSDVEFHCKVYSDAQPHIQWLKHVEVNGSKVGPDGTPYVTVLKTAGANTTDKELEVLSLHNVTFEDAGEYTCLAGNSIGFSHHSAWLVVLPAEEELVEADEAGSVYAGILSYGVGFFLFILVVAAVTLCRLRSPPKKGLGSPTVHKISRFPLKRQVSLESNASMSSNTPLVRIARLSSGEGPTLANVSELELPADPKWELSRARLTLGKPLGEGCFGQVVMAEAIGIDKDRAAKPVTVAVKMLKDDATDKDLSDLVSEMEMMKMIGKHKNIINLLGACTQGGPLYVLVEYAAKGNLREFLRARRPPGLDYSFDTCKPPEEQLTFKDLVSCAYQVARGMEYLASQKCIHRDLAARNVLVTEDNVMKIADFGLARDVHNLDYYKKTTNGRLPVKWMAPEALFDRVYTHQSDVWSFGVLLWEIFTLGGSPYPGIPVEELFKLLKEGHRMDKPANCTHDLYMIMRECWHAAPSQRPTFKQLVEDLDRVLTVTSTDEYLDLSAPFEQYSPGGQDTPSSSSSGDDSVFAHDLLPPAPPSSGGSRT

T1 sequence (chain, as listed by the source limits assumed): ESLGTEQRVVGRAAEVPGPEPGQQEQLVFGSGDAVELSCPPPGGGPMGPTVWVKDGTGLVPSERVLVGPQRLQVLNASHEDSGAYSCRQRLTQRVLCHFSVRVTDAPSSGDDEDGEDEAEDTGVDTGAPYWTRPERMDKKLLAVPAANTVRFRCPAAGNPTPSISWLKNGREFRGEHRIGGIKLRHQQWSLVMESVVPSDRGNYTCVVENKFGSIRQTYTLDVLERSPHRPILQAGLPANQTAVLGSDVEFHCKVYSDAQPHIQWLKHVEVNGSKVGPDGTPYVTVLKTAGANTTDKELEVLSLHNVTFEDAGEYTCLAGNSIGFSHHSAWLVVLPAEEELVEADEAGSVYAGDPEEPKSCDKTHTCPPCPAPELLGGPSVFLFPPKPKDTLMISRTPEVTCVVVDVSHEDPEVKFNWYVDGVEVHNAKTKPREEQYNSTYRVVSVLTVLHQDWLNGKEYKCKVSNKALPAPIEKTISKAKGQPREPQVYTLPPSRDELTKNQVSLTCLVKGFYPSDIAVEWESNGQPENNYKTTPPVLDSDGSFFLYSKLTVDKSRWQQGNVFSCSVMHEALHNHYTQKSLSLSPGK

Row | Kd (FR3exFc) | IC50, FDCP-FGFR3 proliferation assay with FGF9 (FGFR3 wild type on cells) | Binder
1 | 2 nM | 8 nM | MS-Pro-26-dHLX-MH (other, not shown: a dimerising Fc or GST; small tags and cut ends, Dimeric Fab mini-antibody: Fab fused to the dHLX helix and the MH tag. These parts are not in the letters., Fab mini-antibody format Fab-dHLX-MH (dimer of the Fab); also called MSPRO26 Fab-dHLX; MSPRO26 dimeric dHLX format; copies: 2 + 2) VH: QVQLVQSGAEVKKPGASVKVSCKASGYTFTSYYMHWVRQAPGQGLEWMGWINPNSGGTNYAQKFQGRVTMTRDTSISTAYMELSSLRSEDTAVYYCARGYWYAYFTYINYGYFDNWGQGTLVTVSS VL: DIALTQPASVSGSPGQSITISCTGTSSDVGGYNYVSWYQQHPGKAPKLMIYDVSNRPSGVSNRFSGSKSGNTASLTISGLQAEDEADYYCQSYDNNSDVVFGGGTKLTVL
2 | 2 nM |  | MS-Pro-24-dHLX-MH (other, not shown: a dimerising Fc or GST; small tags and cut ends, Dimeric Fab mini-antibody: Fab fused to the dHLX helix and the MH tag. These parts are not in the letters., Fab mini-antibody format Fab-dHLX-MH (dimer of the Fab); copies: 2 + 2) VH: QVQLVQSGAEVKKPGSSVKVSCKASGGTFSSYAISWVRQAPGQGLEWMGGIIPIFGTANYAQKFQGRVTITADESTSTAYMELSSLRSEDTAVYYCARVNHWTYTFDYWGQGTLVTVSS VL: not shown
